The text below walks through data of PMC11388069.

Data set [1] in a line: immunoprecipitation, western blot. The conditions noted are these: glycan changed form; control: parental MCF7DOX.
Data set [2] in a line: AHA labelling of newly synthesized P-gp. The conditions noted are these: glycan changed form; control: parental MCF7DOX.
Data set [3] is described as follows: immunofluorescence, plasma membrane P-gp. To be noted: glycan changed form; control: parental MCF7DOX.
Data set [4] in a line: proteomics and blot of isolated microvesicles. To be noted: glycan changed form; control: MCF7DOX-MVs.
A short description of data set [5]: NHS-LC-biotin labelled membranous P-gp degradation. To be noted: glycan changed form; control: parental MCF7DOX.

“P-glycoprotein (P-gp, MDR1): MGAT3 overexpression”: the expression_or_secretion entry in data set [1] is on record as “decreases”. In data set [2], the “other: new protein synthesis” value was “no change”. For the same substance, in data set [3], the localisation_or_trafficking entry is recorded as “decreases”. Besides, the “other: recruitment into microvesicles” value in data set [4] is recorded as “decreases”. For the same substance, in data set [5], the degradation_or_half_life result is “increases”.
